Measurements taken from US20030068675, “Position dependent recognition of GNN nucleotide triplets by zinc fingers” (published 2003).
Substitutions are numbered along the chain they refer to.

Key:
Test in all cases: EMSA
Conditions in all cases: tags: MBP fusion
[1] = molecular target: ZFP SBS#1105 (synthetic)
How it was run: (§1)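 Purified ZFP was titrated against labeled double-stranded target (1 nM or lower, at least 10-fold below expected Kd) carrying the natural binding site with flanks. Binding buffer was 10 mM Tris pH 7.5, 100 mM KCl, 1 mM MgCl2, 0.1 mM ZnCl2, 5 mM DTT, 10% glycerol, 0.02% BSA, with equilibration for at least 45 min. Bound and free target were separated on a 10% polyacrylamide gel.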

[2] = molecular target: ZFP SBS#1106 (synthetic)
How it was run: as §1

[3] = molecular target: T1, ZFP SBS#1119 (synthetic, UniProt P08047)
T1 chain: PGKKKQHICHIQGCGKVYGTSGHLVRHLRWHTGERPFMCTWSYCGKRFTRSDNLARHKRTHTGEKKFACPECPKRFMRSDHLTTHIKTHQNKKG
How it was run: as §1

[4] = molecular target: ZFP SBS#1135 (synthetic, UniProt P08047)
How it was run: as §1

[5] = molecular target: T2, ZFP SBS#1132 (synthetic, UniProt P08047)
T2 chain: T1 chain with T20Q, V25A, R50T, D52G, N53E, A55V, T83S, T84R
How it was run: as §1

[6] = molecular target: T3, ZFP SBS#1133 (synthetic, UniProt P08047)
T3 chain: T1 chain with T20Q, S21R, G22A, V25E, R50T, D52G, N53E, A55V, T83S, T84R
How it was run: as §1

[7] = molecular target: T4, ZFP SBS#1111 (synthetic)
T4 chain: T1 chain with T20R, G22D, V25A, R50Q, D52S, N53S, A55V, H81A, T83R, T84E
How it was run: as §1

[8] = molecular target: ZFP SBS#1112 (synthetic)
How it was run: as §1

[9] = molecular target: ZFP SBS#1113 (synthetic)
How it was run: as §1

[10] = molecular target: T5, ZFP SBS#1130 (synthetic)
T5 chain: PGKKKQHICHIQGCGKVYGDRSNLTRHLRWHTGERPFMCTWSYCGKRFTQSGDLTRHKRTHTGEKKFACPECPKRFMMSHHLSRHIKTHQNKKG
How it was run: as §1

[11] = molecular target: ZFP SBS#1123 (synthetic)
How it was run: as §1

[12] = molecular target: T6, ZFP SBS#1121 (synthetic)
T6 chain: T1 chain with T20E, S21R, H23D, V25T, N53A, A55T, H81A, T83R, T84E
How it was run: as §1

[13] = molecular target: T7, ZFP SBS#1122 (synthetic)
T7 chain: T5 chain with N23S, Q50R, G52D, D53A, M78R, H80D, H81A, S83R, R84E
How it was run: as §1

[14] = molecular target: ZFP SBS#1134 (synthetic, UniProt P08047)
How it was run: as §1

[15] = molecular target: T8, ZFP SBS#1110 (synthetic)
T8 chain: T5 chain with N23S, S51R, G52A, D53H, T55E, M78R, H80D, S83T, R84Q
How it was run: as §1

[16] = molecular target: T9, ZFP SBS#1109 (synthetic)
T9 chain: T1 chain with T20E, S21R, H23D, V25T, R50Q, S51R, D52A, N53H, A55E, T84Q
How it was run: as §1

[17] = molecular target: T10, ZFP SBS#1102 (synthetic)
T10 chain: T5 chain with D20Q, R21S, S22A, T25A, D53S, M78R, H80D, H81N, S83T, R84Q
How it was run: as §1

[18] = molecular target: ZFP SBS#1103 (synthetic)
How it was run: as §1

[19] = molecular target: T11, ZFP SBS#472 (synthetic)
T11 chain: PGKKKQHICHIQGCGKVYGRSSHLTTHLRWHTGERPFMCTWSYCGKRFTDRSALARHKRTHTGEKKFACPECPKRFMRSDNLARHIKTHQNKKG
How it was run: as §1

[20] = molecular target: T12, ZFP SBS#1097 (synthetic)
T12 chain: T11 chain with R20Q, S22A, H23N, T25A, T26R, R51C, S52R, A53D
How it was run: as §1

[21] = molecular target: ZFP SBS#1115 (synthetic)
How it was run: as §1

[22] = molecular target: T13, ZFP SBS#1114 (synthetic)
T13 chain: T5 chain with D20Q, R21S, T25A, Q50T, D53S, M78R, H80D, H81N, S83R, R84E
How it was run: as §1

[23] = molecular target: ZFP SBS#1137 (synthetic)
How it was run: as §1

[24] = molecular target: T14, ZFP SBS#1136 (synthetic)
T14 chain: T11 chain with S22D, H23A, T26R, D50Q, S52A, A53H, A55E, N81T, A83R, R84E
How it was run: as §1

[25] = molecular target: ZFP SBS#259 (synthetic)
How it was run: as §1

[26] = molecular target: T15, ZFP SBS#469 (synthetic)
T15 chain: T1 chain with T20D, S21R, G22S, H23A, V25A, R78Q, D80G, H81N, T84R
How it was run: as §1

[27] = molecular target: ZFP SBS#468 (synthetic)
How it was run: as §1

[28] = molecular target: ZFP SBS#467 (synthetic)
How it was run: as §1

[29] = molecular target: ZFP SBS#466 (synthetic)
How it was run: as §1

[30] = molecular target: T16, ZFP SBS#1120 (synthetic)
T16 chain: T11 chain with S22D, H23E, T26R, A53N, A55T, N81H, A83T, R84Q
How it was run: as §1

[31] = molecular target: T17, ZFP SBS#1118 (synthetic)
T17 chain: T5 chain with N23A, S51R, G52A, D53H, T55E, M78R, H80D, H81N, S83T, R84T
How it was run: as §1

[32] = molecular target: T18, ZFP SBS#1124 (synthetic)
T18 chain: T1 chain with T20Q, V25A, R50T, D52G, A55V, H81A, T84R
How it was run: as §1

[33] = molecular target: ZFP SBS#1138 (synthetic)
How it was run: as §1

[34] = molecular target: T19, ZFP SBS#1096 (synthetic)
T19 chain: T5 chain with N23S, S51R, G52A, D53H, T55E, M78R, H80D
How it was run: as §1

[35] = molecular target: T20, ZFP SBS#1095 (synthetic)
T20 chain: T5 chain with D20E, S22G, N23D, S51R, G52A, D53H, T55E, M78R, H80D
How it was run: as §1

ZFP SBS#467 (synthetic), sequence (chain, as listed by the source): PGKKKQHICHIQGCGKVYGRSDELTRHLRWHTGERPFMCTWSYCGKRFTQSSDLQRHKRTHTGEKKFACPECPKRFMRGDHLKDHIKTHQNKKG
ZFP SBS#1138 (synthetic), sequence (chain, as listed by the source): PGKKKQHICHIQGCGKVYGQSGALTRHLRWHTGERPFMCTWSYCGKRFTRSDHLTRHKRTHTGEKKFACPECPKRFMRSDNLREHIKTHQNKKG
ZFP SBS#1112 (synthetic), sequence (chain, as listed by the source): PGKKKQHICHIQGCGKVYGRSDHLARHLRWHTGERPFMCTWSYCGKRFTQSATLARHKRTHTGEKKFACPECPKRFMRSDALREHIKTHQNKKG
ZFP SBS#1106 (synthetic), sequence (chain, as listed by the source): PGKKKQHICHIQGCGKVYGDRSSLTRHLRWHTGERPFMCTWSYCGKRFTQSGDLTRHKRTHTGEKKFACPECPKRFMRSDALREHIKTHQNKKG
ZFP SBS#1115 (synthetic), sequence (chain, as listed by the source): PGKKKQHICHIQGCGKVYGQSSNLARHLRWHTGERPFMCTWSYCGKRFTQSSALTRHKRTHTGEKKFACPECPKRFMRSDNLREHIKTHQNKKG
ZFP SBS#1105 (synthetic), sequence (chain, as listed by the source): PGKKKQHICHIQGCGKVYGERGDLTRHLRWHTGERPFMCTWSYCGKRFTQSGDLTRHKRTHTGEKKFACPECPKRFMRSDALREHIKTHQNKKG
ZFP SBS#466 (synthetic), sequence (chain, as listed by the source): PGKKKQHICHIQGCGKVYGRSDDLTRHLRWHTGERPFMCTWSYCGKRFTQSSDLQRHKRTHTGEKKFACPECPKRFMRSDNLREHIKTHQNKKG
ZFP SBS#468 (synthetic), sequence (chain, as listed by the source): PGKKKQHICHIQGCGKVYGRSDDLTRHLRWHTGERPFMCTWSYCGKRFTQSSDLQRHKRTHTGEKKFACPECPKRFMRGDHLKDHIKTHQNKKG
ZFP SBS#1123 (synthetic), sequence (chain, as listed by the source): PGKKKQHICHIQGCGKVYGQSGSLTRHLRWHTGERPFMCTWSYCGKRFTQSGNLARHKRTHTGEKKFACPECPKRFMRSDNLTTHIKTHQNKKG
ZFP SBS#1103 (synthetic), sequence (chain, as listed by the source): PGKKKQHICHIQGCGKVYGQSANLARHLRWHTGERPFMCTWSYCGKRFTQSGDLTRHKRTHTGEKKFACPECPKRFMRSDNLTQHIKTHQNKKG

B1: CTGGCAGCC (dsDNA)
DNA 1: CTGGCAGCC
DNA 2: GGCTGCCAG
How did the Kd [1] turn out when B1 was run?
The Kd was 2.45 nM.

What about the Kd [2] of the same binder?
Its Kd is 0.19 nM.

B2: TGGGAGGGT (dsDNA)
DNA 1: TGGGAGGGT
DNA 2: ACCCTCCCA
How did the Kd [3] turn out when B2 was run?
Its Kd is 0.1 nM.

B3: GCGGCGGGG (dsDNA)
DNA 1: GCGGCGGGG
DNA 2: CCCCGCCGC
For B3, which Kd [4] is on record?
The Kd was 0.025 nM.

B4: GGGGCTGGA (dsDNA)
DNA 1: GGGGCTGGA
DNA 2: TCCAGCCCC
B4 was tested. Which Kd [5] did it give?
The Kd was 0.055 nM.

And the Kd [6]?
Its Kd is 0.5 nM.

B5: CTGGTAGGG (dsDNA)
DNA 1: CTGGTAGGG
DNA 2: CCCTACCAG
For B5, which Kd [7] is on record?
Its Kd is 0.095 nM.

What about the Kd [8] of the same binder?
The Kd was 0.125 nM.

B6: CTGGGGGCA (dsDNA)
DNA 1: CTGGGGGCA
DNA 2: TGCCCCCAG
For B6, which Kd [9] is on record?
The Kd was 0.06 nM.

B7: GGTGCAGAC (dsDNA)
DNA 1: GGTGCAGAC
DNA 2: GTCTGCACC
B7 was tested. Which Kd [10] did it give?
Its Kd is 0.1 nM.

B8: TAGGAAGCA (dsDNA)
DNA 1: TAGGAAGCA
DNA 2: TGCTTCCTA
With B8 as the binder, how does the Kd [11] read?
Its Kd is 0.065 nM.

B9: CTGGTGGCC (dsDNA)
DNA 1: CTGGTGGCC
DNA 2: GGCCACCAG
How did the Kd [12] turn out when B9 was run?
The Kd was 2.76 nM.

And the Kd [13]?
The Kd was 0.101 nM.

B10: TGGGGGTGG (dsDNA)
DNA 1: TGGGGGTGG
DNA 2: CCACCCCCA
How did the Kd [14] turn out when B10 was run?
The Kd was 0.067 nM.

B11: AGGGGAGCC (dsDNA)
DNA 1: AGGGGAGCC
DNA 2: GGCTCCCCT
B11 was tested. Which Kd [15] did it give?
Its Kd is 0.095 nM.

What about the Kd [16] of the same binder?
Its Kd is 0.347 nM.

B12: AAGGCAGAA (dsDNA)
DNA 1: AAGGCAGAA
DNA 2: TTCTGCCTT
Which results are given for B12?
Kd [17]: 8.15 nM; Kd [18]: 1.4 nM

B13: GAGGTCTGGA (dsDNA)
DNA 1: GAGGTCTGGA
DNA 2: TCCAGACCTC
How did the Kd [19] turn out when B13 was run?
The Kd was 80 nM.

B14: GAGGCCGAA (dsDNA)
DNA 1: GAGGCCGAA
DNA 2: TTCGGCCTC
How did the Kd [20] turn out when B14 was run?
Its Kd is 0.77 nM.

B15: CAGGTTGAT (dsDNA)
DNA 1: CAGGTTGAT
DNA 2: ATCAACCTG
B15 was tested. Which Kd [21] did it give?
The Kd was 0.7 nM.

What about the Kd [22] of the same binder?
The Kd was 2.75 nM.

B16: CCGGGAGTG (dsDNA)
DNA 1: CCGGGAGTG
DNA 2: CACTCCCGG
Which Kd [23] does the source give for B16 here?
The Kd was 0.085 nM.

And the Kd [24]?
Its Kd is 0.225 nM.

B17: GCAGAGGAG (dsDNA)
DNA 1: GCAGAGGAG
DNA 2: CTCCTCTGC
B17 was tested. Which Kd [25] did it give?
Its Kd is 250 nM.

B18: GAAGAGGTCT (dsDNA)
DNA 1: GAAGAGGTCT
DNA 2: AGACCTCTTC
With B18 as the binder, how does the Kd [26] read?
The Kd was 13.5 nM.

B19: CAGGCTGCGC (dsDNA)
DNA 1: CAGGCTGCGC
DNA 2: GCGCAGCCTG
For B19, which Kd [27] is on record?
The Kd was 42 nM.

What about the Kd [28] of the same binder?
The Kd was 800 nM.

And the Kd [29]?
Its Kd is 65 nM.

B20: AGGGACGCG (dsDNA)
DNA 1: AGGGACGCG
DNA 2: CGCGTCCCT
Which Kd [30] does the source give for B20 here?
Its Kd is 2.73 nM.

B21: TAGGGAGTC (dsDNA)
DNA 1: TAGGGAGTC
DNA 2: GACTCCCTA
Which Kd [31] does the source give for B21 here?
Its Kd is 1.4 nM.

B22: GTGGATGGA (dsDNA)
DNA 1: GTGGATGGA
DNA 2: TCCATCCAC
How did the Kd [32] turn out when B22 was run?
Its Kd is 0.101 nM.

B23: CAGGGGGTA (dsDNA)
DNA 1: CAGGGGGTA
DNA 2: TACCCCCTG
For B23, which Kd [33] is on record?
The Kd was 0.027 nM.

B24: GGGGGAGCC (dsDNA)
DNA 1: GGGGGAGCC
DNA 2: GGCTCCCCC
For B24, which Kd [34] is on record?
The Kd was 0.019 nM.

What about the Kd [35] of the same binder?
Its Kd is 0.395 nM.
